# B1: Myc3-iSH2-p110β (wild type) [bovine | human] / GST-Rab5 wild-type [canine] (parent complex)
# chain 1: LYEDYTRTSQEIQMKRTAIEAFNETIKIFEEQCQTQERYSKEYIEKFKREGNETEIQRIMHNYEKLKSRISEIVDSRRRLEEDLKKQAAEYREIDKRMNSIKGGGGGGGMCFSFIMPPAMADILDIWAVDSQIASDGSIPVDFLLPTGIYIQLEVPREATISYIKQMLWKQVHNYPMFNLLMDIDSYMFACVNQTAVYEELEDETRRLCDVRPFLPVLKLVTRSCDPGEKLDSKIGVLIGKGLHEFDSLKDPEVNEFRRKMRKFSEEKILSLVGLSWMDWLKQTYPPEHEPSIPENLEDKLYGGKLIVAVHFENCQDVFSFQVSPNMNPIKVNELAIQKRLTIHGKEDEVSPYDYVLQVSGRVEYVFGDHPLIQFQYIRNCVMNRALPHFILVECCKIKKMYEQEMIAIEAAINRNSSNLPLPLPPKKTRIISHVWENNNPFQIVLVKGNKLNTEETVKVHVRAGLFHGTELLCKTIVSSEVSGKNDHIWNEPLEFDINICDLPRMARLCFAVYAVLDKVKTKKSTKTINPSKYQTIRKAGKVHYPVAWVNTMVFDFKGQLRTGDIILHSWSSFPDELEEMLNPMGTVQTNPYTENATALHVKFPENKKQPYYYPPFDKIIEKAAEIASSDSANVSSRGGKKFLPVLKEILDRDPLSQLCENEMDLIWTLRQDCREIFPQSLPKLLLSIKWNKLEDVAQLQALLQIWPKLPPREALELLDFNYPDQYVREYAVGCLRQMSDEELSQYLLQLVQVLKYEPFLDCALSRFLLERALGNRRIGQFLFWHLRSEVHIPAVSVQFGVILEAYCRGSVGHMKVLSKQVEALNKLKTLNSLIKLNAVKLNRAKGKEAMHTCLKQSAYREALSDLQSPLNPCVILSELYVEKCKYMDSKMKPLWLVYNNKVFGEDSVGVIFKNGDDLRQDMLTLQMLRLMDLLWKEAGLDLRMLPYGCLATGDRSGLIEVVSTSETIADIQLNSSNVAAAAAFNKDALLNWLKEYNSGDDLDRAIEEFTLSCAGYCVASYVLGIGDRHSDNIMVKKTGQLFHIDFGHILGNFKSKFGIKRERVPFILTYDFIHVIQQGKTGNTEKFGRFRQCCEDAYLILRRHGNLFITLFALMLTAGLPELTSVKDIQYLKDSLALGKSEEEALKQFKQKFDEALRESWTTKVNWMAHTVRKDYRS
# chain 2: ANRGATRPNGPNTGNKICQFKLVLLGESAVGKSSLVLRFVKGQFHEFQESTIGAAFLTQTVCLDDTTVKFEIWDTAGQERYHSLAPMYYRGAQAAIVVYDITNEESFARAKNWVKELQRQASPNIVIALSGNKADLANKRAVDFQEAQSYADDNSLLFMETSAKTSMNVNEIFMAIAKKLPKNEPQNPGANSARGRGVDLTEPTQPTRSQCCSN
# Variants of: B1
# Assay: GST pull-down, anti-Myc immunoblot quantification; GST-Rab5 loaded with GppCp; parent: 100; read off a plot
row,Variant,percent of parent [% WT]
1,chain 1 D348R,~190
2,chain 1 Y353A,~7
3,chain 1 L341A,~117

# Variants of: B1
# Assay: GST pull-down, anti-Myc immunoblot quantification; GST-Rab5 fusion proteins (10 µg) on glutathione Sepharose beads, GppCp-loaded; Myc-iSH2-p110β from transfected COS-1 lysates; parent: 100; read off a plot
row,Variant,percent of parent [% WT]
1,chain 2 W73A,~26
2,chain 2 R80E,~23
3,chain 2 H45A,~110
4,chain 2 S83A,~112
5,chain 2 R90E,~20
6,chain 2 Y88A,~15
7,chain 2 F56A,~24
8,chain 2 L84A,~16
9,chain 2 H82E,~12
10,chain 2 E46A,~72
11,chain 2 Q43E,~115
12,chain 2 I52A,~7
13,chain 2 Y81A,~8

# Reference: paper PMC5700975 (2017)
